We go through one molecule from article PMC6838200 (2019).

Broadly, the koff is the first-order rate constant of dissociation.

Assay [1] deals with T1, Spa2-C (Spa2 C-terminal region, 1306-1466aa) (S. cerevisiae, UniProt P23201 1306-1466).
T1 chain: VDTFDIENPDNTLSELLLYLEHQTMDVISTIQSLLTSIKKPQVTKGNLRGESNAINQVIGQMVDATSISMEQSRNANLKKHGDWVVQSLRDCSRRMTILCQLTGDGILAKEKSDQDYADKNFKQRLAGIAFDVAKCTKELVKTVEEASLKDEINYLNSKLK
The assay can be described thus: SPR; bivalent model, koff2 (second site). (In SPR one partner is held on a chip, and binding of the other changes the refractive index at the surface.)

Assay [2] concerns the target T1, Spa2-C (Spa2 C-terminal region, …). The assay can be described thus: SPR; bivalent model, koff1.

B1: Aip5-N271 (domain or fragment)
chain: MVESLTVENQEHNVQPPSVTSAGDSYSTLATDLPLPSTNDIIESRDQLTESDLDEAINATENFAQELSSQRKSSKLKGHKKKNQGQIKANRDRDTIVKLSSSVGETEEASTRDAISHDLERKDDVIEIATDTINDATESPTQIPIDVNVVIKETSTNNVAEGTENVPPIKESTGIEVGNSPITRRKKNKKKKTTNRRGRNSSNPADTTDLSKQSTLDSILVGIEEYLQEDGSKNEDIKVNIVQDEPVNVEKMDIRTRNESSDKTFDIDVPN
With B1, the koff worked out at 0.00266 s⁻¹ in assay [1] and 0.046 s⁻¹ in assay [2].
